What was measured:
Conditions in all cases: both partners purified
[1] = target: T1, pyrene-labeled filamentous actin (UniProt P68135 1-377, pyrene label); test: stopped-flow pyrene-actin fluorescence; dissociation of the myosin motor domain from pyrene-actin; salt free stopped-flow buffer; samples treated with apyrase prior to the assay (rigor conditions)
[2] = target: T2, filamentous actin (F-actin) (UniProt P68135 1-377); test: stopped-flow light scattering; myosin motor domain binding to F-actin in a stopped-flow system; salt free stopped-flow buffer; samples treated with apyrase prior to the assay (rigor conditions)
[3] = target: T2, filamentous actin (F-actin); test: stopped-flow light scattering; myosin motor domain binding to F-actin in the presence of ADP; salt free stopped-flow buffer
[4] = target: T2, filamentous actin (F-actin); test: stopped-flow light scattering + other: stopped-flow pyrene-actin fluorescence; dissociation equilibrium constant calculated as k-A/k+A; absence of nucleotide (rigor); salt free stopped-flow buffer
[5] = target: T2, filamentous actin (F-actin); test: stopped-flow light scattering + other: stopped-flow pyrene-actin fluorescence; dissociation equilibrium constant calculated as k-DA/k+DA; presence of ADP; salt free stopped-flow buffer
[6] = target: T1, pyrene-labeled filamentous actin; test: stopped-flow pyrene-actin fluorescence; dissociation of the myosin motor domain from pyrene-actin in the presence of ADP; salt free stopped-flow buffer

| Binder | koff [1] | kon [2] | kon [3] | Kd [4] | Kd [5] | koff [6] |
| --- | --- | --- | --- | --- | --- | --- |
| human nonmuscle myosin-2C motor domain (amino acids 1-799) directly fused to spectrin repeats 1 and 2 from Dictyostelium alpha-actinin, C-terminal Flag-tag (domain or fragment, nonmuscle myosin-2C heavy chain (gene product of MYH14), human, motor domain, amino acids 1-799; alpha-actinin, Dictyostelium discoideum, spectrin repeats 1 and 2, used as artificial lever arm; Monomeric motor domain construct; also called NM2C; Hs NM2C; source: Sf9/baculovirus system, purified to electrophoretic homogeneity) MAAVTMSVPGRKAPPRPGPVPEAAQPFLFTPRGPSAGGGPGSGTSPQVEWTARRLVWVPSELHGFEAAALRDEGEEEAEVELAESGRRLRLPRDQIQRMNPPKFSKAEDMAELTCLNEASVLHNLRERYYSGLIYTYSGLFCVVINPYKQLPIYTEAIVEMYRGKKRHEVPPHVYAVTEGAYRSMLQDREDQSILCTGESGAGKTENTKKVIQYLAHVASSPKGRKEPGVPGELERQLLQANPILEAFGNAKTVKNDNSSRFGKFIRINFDVAGYIVGANIETYLLEKSRAIRQAKDECSFHIFYQLLGGAGEQLKADLLLEPCSHYRFLTNGPSSSPGQERELFQETLESLRVLGFSHEEIISMLRMVSAVLQFGNIALKRERNTDQATMPDNTAAQKLCRLLGLGVTDFSRALLTPRIKVGRDYVQKAQTKEQADFALEALAKATYERLFRWLVLRLNRALDRSPRQGASFLGILDIAGFEIFQLNSFEQLCINYTNEKLQQLFNHTMFVLEQEEYQREGIPWTFLDFGLDLQPCIDLIERPANPPGLLALLDEECWFPKATDKSFVEKVAQEQGGHPKFQRPRHLRDQADFSVLHYAGKVDYKANEWLMKNMDPLNDNVAALLHQSTDRLTAEIWKDVEGIVGLEQVSSLGDGPPGGRPRRGMFRTVGQLYKESLSRLMATLSNTNPSFVRCIVPNHEKRAGKLEPRLVLDQLRCNGVLEGIRICRQGFPNRILFQEFRQRYEILTPNAIPKGFMDGKQACEKMIQALELDPNLYRVGQSKIFFRAGVLAQLEEEREQTKSDYLKRANELVQWINDKQASLESRDFGDSIESVQSFMNAHKEYKKTEKPPKGQEVSELEAIYNSLQTKLRLIKREPFVAPAGLTPNEIDSTWSALEKAEQEHAEALRIELKRQKKIAVLLQKYNRILKKLENWATTKSVYLGSNETGDSITAVQAKLKNLEAFDGECQSLEGQSNSDLLSILAQLTELNYNGVPELTERKDTFFAQQWTGVKSSAETYKNT | ~0.15 s⁻¹ | 2.49e+06 ± 70000 M⁻¹ s⁻¹ | 530000 ± 10000 M⁻¹ s⁻¹ | ~60 nM | ~8 nM | ~0.004 s⁻¹ |
| human nonmuscle myosin-2C motor domain (amino acids 1-799) R788K fused to spectrin repeats 1 and 2 from Dictyostelium alpha-actinin, C-terminal Flag-tag (domain or fragment, nonmuscle myosin-2C heavy chain (gene product of MYH14), human, motor domain, amino acids 1-799, with R788K; alpha-actinin, Dictyostelium discoideum, spectrin repeats 1 and 2, used as artificial lever arm; Point mutant made by people on the fusion construct m1; also called Hs R788K; R788K (kinetic studies); source: Sf9/baculovirus system, purified to electrophoretic homogeneity) MAAVTMSVPGRKAPPRPGPVPEAAQPFLFTPRGPSAGGGPGSGTSPQVEWTARRLVWVPSELHGFEAAALRDEGEEEAEVELAESGRRLRLPRDQIQRMNPPKFSKAEDMAELTCLNEASVLHNLRERYYSGLIYTYSGLFCVVINPYKQLPIYTEAIVEMYRGKKRHEVPPHVYAVTEGAYRSMLQDREDQSILCTGESGAGKTENTKKVIQYLAHVASSPKGRKEPGVPGELERQLLQANPILEAFGNAKTVKNDNSSRFGKFIRINFDVAGYIVGANIETYLLEKSRAIRQAKDECSFHIFYQLLGGAGEQLKADLLLEPCSHYRFLTNGPSSSPGQERELFQETLESLRVLGFSHEEIISMLRMVSAVLQFGNIALKRERNTDQATMPDNTAAQKLCRLLGLGVTDFSRALLTPRIKVGRDYVQKAQTKEQADFALEALAKATYERLFRWLVLRLNRALDRSPRQGASFLGILDIAGFEIFQLNSFEQLCINYTNEKLQQLFNHTMFVLEQEEYQREGIPWTFLDFGLDLQPCIDLIERPANPPGLLALLDEECWFPKATDKSFVEKVAQEQGGHPKFQRPRHLRDQADFSVLHYAGKVDYKANEWLMKNMDPLNDNVAALLHQSTDRLTAEIWKDVEGIVGLEQVSSLGDGPPGGRPRRGMFRTVGQLYKESLSRLMATLSNTNPSFVRCIVPNHEKRAGKLEPRLVLDQLRCNGVLEGIRICRQGFPNRILFQEFRQRYEILTPNAIPKGFMDGKQACEKMIQALELDPNLYRVGQSKIFFKAGVLAQLEEEREQTKSDYLKRANELVQWINDKQASLESRDFGDSIESVQSFMNAHKEYKKTEKPPKGQEVSELEAIYNSLQTKLRLIKREPFVAPAGLTPNEIDSTWSALEKAEQEHAEALRIELKRQKKIAVLLQKYNRILKKLENWATTKSVYLGSNETGDSITAVQAKLKNLEAFDGECQSLEGQSNSDLLSILAQLTELNYNGVPELTERKDTFFAQQWTGVKSSAETYKNT | 0.04 to 0.07 s⁻¹ | 1.65e+06 ± 30000 M⁻¹ s⁻¹ | 2.53e+06 ± 50000 M⁻¹ s⁻¹ | 24 to 42 nM | 26 to 43 nM | 0.067 to 0.11 s⁻¹ |
| human nonmuscle myosin-2C motor domain (amino acids 1-799) R788E fused to spectrin repeats 1 and 2 from Dictyostelium alpha-actinin, C-terminal Flag-tag (domain or fragment, nonmuscle myosin-2C heavy chain (gene product of MYH14), human, motor domain, amino acids 1-799, with R788E; alpha-actinin, Dictyostelium discoideum, spectrin repeats 1 and 2, used as artificial lever arm; Point mutant made by people on the fusion construct m1; also called Hs R788E; R788E (kinetic studies); source: Sf9/baculovirus system, purified to electrophoretic homogeneity) MAAVTMSVPGRKAPPRPGPVPEAAQPFLFTPRGPSAGGGPGSGTSPQVEWTARRLVWVPSELHGFEAAALRDEGEEEAEVELAESGRRLRLPRDQIQRMNPPKFSKAEDMAELTCLNEASVLHNLRERYYSGLIYTYSGLFCVVINPYKQLPIYTEAIVEMYRGKKRHEVPPHVYAVTEGAYRSMLQDREDQSILCTGESGAGKTENTKKVIQYLAHVASSPKGRKEPGVPGELERQLLQANPILEAFGNAKTVKNDNSSRFGKFIRINFDVAGYIVGANIETYLLEKSRAIRQAKDECSFHIFYQLLGGAGEQLKADLLLEPCSHYRFLTNGPSSSPGQERELFQETLESLRVLGFSHEEIISMLRMVSAVLQFGNIALKRERNTDQATMPDNTAAQKLCRLLGLGVTDFSRALLTPRIKVGRDYVQKAQTKEQADFALEALAKATYERLFRWLVLRLNRALDRSPRQGASFLGILDIAGFEIFQLNSFEQLCINYTNEKLQQLFNHTMFVLEQEEYQREGIPWTFLDFGLDLQPCIDLIERPANPPGLLALLDEECWFPKATDKSFVEKVAQEQGGHPKFQRPRHLRDQADFSVLHYAGKVDYKANEWLMKNMDPLNDNVAALLHQSTDRLTAEIWKDVEGIVGLEQVSSLGDGPPGGRPRRGMFRTVGQLYKESLSRLMATLSNTNPSFVRCIVPNHEKRAGKLEPRLVLDQLRCNGVLEGIRICRQGFPNRILFQEFRQRYEILTPNAIPKGFMDGKQACEKMIQALELDPNLYRVGQSKIFFEAGVLAQLEEEREQTKSDYLKRANELVQWINDKQASLESRDFGDSIESVQSFMNAHKEYKKTEKPPKGQEVSELEAIYNSLQTKLRLIKREPFVAPAGLTPNEIDSTWSALEKAEQEHAEALRIELKRQKKIAVLLQKYNRILKKLENWATTKSVYLGSNETGDSITAVQAKLKNLEAFDGECQSLEGQSNSDLLSILAQLTELNYNGVPELTERKDTFFAQQWTGVKSSAETYKNT | ~0.031 s⁻¹ | 660000 ± 30000 M⁻¹ s⁻¹ | 210000 ± 10000 M⁻¹ s⁻¹ | ~47 nM | ~9 nM | ~0.002 s⁻¹ |

Reference: PMC5749951, “Mechanistic insights into the active site and allosteric communication pathways in human nonmuscle myosin-2C” (eLife, 2017)
